Test results taken from patent publication US12467929.
Each block holds one substance with its values, some of them ahead of it.

Experiments:
[1] = molecular target: recombinant UBE3A protein (Homo sapiens (Human)) (UniProt Q05086); assay: Simoa; capture GTX; SBG 75 pm; UBE3A 0.00640 ng/ml
[2] = molecular target: recombinant UBE3A protein (Homo sapiens (Human)) (UniProt Q05086); assay: Simoa; capture GTX; SBG 150 pm; UBE3A 0.800 ng/ml
[3] = molecular target: recombinant UBE3A protein (Homo sapiens (Human)) (UniProt Q05086); assay: Simoa; capture GTX + helper beads; 3E5 0.4 ug/ml; UBE3A 0.00128 ng/ml
[4] = molecular target: recombinant UBE3A protein (Homo sapiens (Human)) (UniProt Q05086); assay: Simoa; capture GTX; SBG 75 pm; UBE3A 0.160 ng/ml
[5] = molecular target: recombinant UBE3A protein (Homo sapiens (Human)) (UniProt Q05086); assay: 3-step Simoa, 120 min bead step; capture GTX; UBE3A 0.800 ng/ml
[6] = molecular target: recombinant UBE3A protein (Homo sapiens (Human)) (UniProt Q05086); assay: Simoa head-to-head, Table 10; capture GTX; UBE3A 500 ng/ml
[7] = molecular target: recombinant UBE3A protein (Homo sapiens (Human)) (UniProt Q05086); assay: Simoa head-to-head, Table 10; capture GTX; UBE3A 4.00 ng/ml
[8] = molecular target: recombinant UBE3A protein (Homo sapiens (Human)) (UniProt Q05086); assay: Simoa head-to-head, Table 10; capture GTX; UBE3A 0.16 ng/ml
[9] = molecular target: recombinant UBE3A protein (Homo sapiens (Human)) (UniProt Q05086); assay: Simoa head-to-head, Table 10; capture GTX; UBE3A 0.032 ng/ml
[10] = molecular target: recombinant UBE3A protein (Homo sapiens (Human)) (UniProt Q05086); assay: Simoa head-to-head, Table 10; capture GTX; UBE3A 0.80 ng/ml
[11] = molecular target: recombinant UBE3A protein (Homo sapiens (Human)) (UniProt Q05086); assay: Simoa; capture GTX, no helper beads; 3E5 0.2 ug/ml; UBE3A 20.0 ng/ml
[12] = molecular target: recombinant UBE3A protein (Homo sapiens (Human)) (UniProt Q05086); assay: Simoa head-to-head, Table 10; capture GTX; UBE3A 100 ng/ml
[13] = molecular target: recombinant UBE3A protein (Homo sapiens (Human)) (UniProt Q05086); assay: 3-step Simoa; capture MS 2F6; UBE3A 0.01 ng/ml
[14] = molecular target: recombinant UBE3A protein (Homo sapiens (Human)) (UniProt Q05086); assay: 2-step Simoa; capture MS 3E5; UBE3A 0.1 ng/ml
[15] = molecular target: recombinant UBE3A protein (Homo sapiens (Human)) (UniProt Q05086); assay: 2-step Simoa; capture GTX; UBE3A 0.1 ng/ml
[16] = molecular target: recombinant UBE3A protein (Homo sapiens (Human)) (UniProt Q05086); assay: 3-step Simoa; capture MS 3E5; UBE3A 0.01 ng/ml
[17] = molecular target: recombinant UBE3A protein (Homo sapiens (Human)) (UniProt Q05086); assay: 3-step Simoa; capture MS 3E5; UBE3A 0.1 ng/ml
[18] = molecular target: recombinant UBE3A protein (Homo sapiens (Human)) (UniProt Q05086); assay: 2-step Simoa; capture MS 3E5; UBE3A 1 ng/ml
[19] = molecular target: recombinant UBE3A protein (Homo sapiens (Human)) (UniProt Q05086); assay: 2-step Simoa; capture MS 3E5; UBE3A 10 ng/ml
[20] = molecular target: recombinant UBE3A protein (Homo sapiens (Human)) (UniProt Q05086); assay: 2-step Simoa; capture MS 3E5; UBE3A 0.01 ng/ml
[21] = molecular target: recombinant UBE3A protein (Homo sapiens (Human)) (UniProt Q05086); assay: 3-step Simoa; capture MS 3E5; UBE3A 10 ng/ml
[22] = molecular target: recombinant UBE3A protein (Homo sapiens (Human)) (UniProt Q05086); assay: 3-step Simoa; capture MS 3E5; UBE3A 1 ng/ml

UniProt Q05086, sequence (Q05086 whole entry): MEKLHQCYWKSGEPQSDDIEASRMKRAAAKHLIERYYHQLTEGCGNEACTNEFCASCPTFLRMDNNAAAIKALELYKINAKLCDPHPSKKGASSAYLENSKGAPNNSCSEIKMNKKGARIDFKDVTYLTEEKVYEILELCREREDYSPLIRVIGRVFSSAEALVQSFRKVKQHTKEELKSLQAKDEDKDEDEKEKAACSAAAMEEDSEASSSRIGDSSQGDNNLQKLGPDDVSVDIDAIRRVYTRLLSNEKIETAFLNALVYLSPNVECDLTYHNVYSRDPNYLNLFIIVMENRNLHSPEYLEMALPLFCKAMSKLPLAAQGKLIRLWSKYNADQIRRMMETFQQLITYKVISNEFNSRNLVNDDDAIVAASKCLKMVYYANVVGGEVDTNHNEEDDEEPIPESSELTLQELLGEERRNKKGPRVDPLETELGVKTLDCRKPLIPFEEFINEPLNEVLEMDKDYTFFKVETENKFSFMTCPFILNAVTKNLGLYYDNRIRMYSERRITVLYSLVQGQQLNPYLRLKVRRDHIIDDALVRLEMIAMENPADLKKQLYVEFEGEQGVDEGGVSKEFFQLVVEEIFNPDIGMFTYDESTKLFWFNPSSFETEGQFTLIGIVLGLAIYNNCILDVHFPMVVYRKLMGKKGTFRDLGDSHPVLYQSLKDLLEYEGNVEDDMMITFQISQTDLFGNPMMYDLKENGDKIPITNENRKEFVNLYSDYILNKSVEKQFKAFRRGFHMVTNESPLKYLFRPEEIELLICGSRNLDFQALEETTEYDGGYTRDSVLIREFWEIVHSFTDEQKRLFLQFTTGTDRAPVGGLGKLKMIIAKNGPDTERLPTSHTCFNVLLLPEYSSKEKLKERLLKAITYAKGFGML

AEB1 [1]: 0.0059
AEB2 [1]: 0.0047
AEB3 [1]: 0.0074
Average AEB [1]: 0.006
Signal to Background [1]: 1.36
AEB1 [2]: 0.271
AEB2 [2]: 0.285
AEB3 [2]: 0.279
Average AEB [2]: 0.278
Signal to Background [2]: 21
AEB1 [3]: 0.0222
AEB2 [3]: 0.0178
Average AEB [3]: 0.02
Signal to Background [3]: 1.02
AEB1 [4]: 0.0299
AEB2 [4]: 0.0294
AEB3 [4]: 0.03
Average AEB [4]: 0.0298
Signal to Background [4]: 6.82
AEB1 [5]: 0.151
AEB2 [5]: 0.154
Ave AEB [5]: 0.152
Signal to Background [5]: 89.4
AEB1 [6]: 12.3
AEB2 [6]: 11.6
Ave AEB [6]: 11.9
Signal to Background [6]: 526
AEB1 [7]: 0.361
AEB2 [7]: 0.362
Ave AEB [7]: 0.361
Signal to Background [7]: 15.9
AEB1 [8]: 0.0558
AEB2 [8]: 0.0571
Ave AEB [8]: 0.0564
Signal to Background [8]: 2.48
AEB1 [9]: 0.031
AEB2 [9]: 0.0329
Ave AEB [9]: 0.0319
Signal to Background [9]: 1.41
AEB1 [10]: 0.144
AEB2 [10]: 0.14
Ave AEB [10]: 0.142
Signal to Background [10]: 6.24
AEB1 [11]: 4.96
AEB2 [11]: 5
Average AEB [11]: 4.98
Signal to Background [11]: 514
AEB1 [12]: 4.3
AEB2 [12]: 4.08
Ave AEB [12]: 4.19
Signal to Background [12]: 184
Substance: anti-UBE3A antibody 3E5 (SAB1404508-100 ug, Millipore-Sigma)

AEB1 [13]: 0.0086
AEB2 [13]: 0.0101
Ave AEB [13]: 0.0093
Signal to Background [13]: 1.07
AEB1 [14]: 0.009
AEB2 [14]: 0.0091
Ave AEB [14]: 0.009
Signal to Background [14]: 1.21
AEB1 [15]: 0.0089
AEB2 [15]: 0.0108
Ave AEB [15]: 0.0098
Signal to Background [15]: 1.33
AEB1 [16]: 0.0038
AEB2 [16]: 0.0032
Ave AEB [16]: 0.0035
Signal to Background [16]: 1.05
AEB1 [17]: 0.0026
AEB2 [17]: 0.0025
Ave AEB [17]: 0.0025
Signal to Background [17]: 0.765
AEB1 [18]: 0.0227
AEB2 [18]: 0.0226
Ave AEB [18]: 0.0226
Signal to Background [18]: 3.04
AEB1 [6]: 0.282
AEB2 [6]: 0.309
Ave AEB [6]: 0.296
Signal to Background [6]: 142
AEB1 [19]: 0.15
AEB2 [19]: 0.14
Ave AEB [19]: 0.145
Signal to Background [19]: 19.5
AEB1 [20]: 0.0065
AEB2 [20]: 0.007
Ave AEB [20]: 0.0068
Signal to Background [20]: 0.908
AEB1 [7]: 0.0402
AEB2 [7]: 0.0398
Ave AEB [7]: 0.04
Signal to Background [7]: 19.2
AEB1 [8]: 0.0038
AEB2 [8]: 0.004
Ave AEB [8]: 0.0039
Signal to Background [8]: 1.88
AEB1 [21]: 0.0157
AEB2 [21]: 0.0129
Ave AEB [21]: 0.0143
Signal to Background [21]: 4.29
AEB1 [9]: 0.0035
AEB2 [9]: 0.0027
Ave AEB [9]: 0.0031
Signal to Background [9]: 1.49
AEB1 [22]: 0.004
AEB2 [22]: 0.0047
Ave AEB [22]: 0.0044
Signal to Background [22]: 1.31
AEB1 [10]: 0.0085
AEB2 [10]: 0.0124
Ave AEB [10]: 0.0105
Signal to Background [10]: 5.03
AEB1 [12]: 0.293
AEB2 [12]: 0.288
Ave AEB [12]: 0.291
Signal to Background [12]: 140
Substance: NB500-240 (Novus) (antibody)

AEB1 [13]: 0.0162
AEB2 [13]: 0.0191
Ave AEB [13]: 0.0176
Signal to Background [13]: 0.94
AEB1 [14]: 0.161
AEB2 [14]: 0.149
Ave AEB [14]: 0.155
Signal to Background [14]: 1.1
AEB1 [15]: 0.0525
AEB2 [15]: 0.0487
Ave AEB [15]: 0.0506
Signal to Background [15]: 1
AEB1 [16]: 0.0515
AEB2 [16]: 0.05
Ave AEB [16]: 0.0508
Signal to Background [16]: 0.946
AEB1 [17]: 0.0546
AEB2 [17]: 0.06
Ave AEB [17]: 0.0573
Signal to Background [17]: 1.07
AEB1 [18]: 0.159
AEB2 [18]: 0.165
Ave AEB [18]: 0.162
Signal to Background [18]: 1.15
AEB1 [19]: 0.407
AEB2 [19]: 0.385
Ave AEB [19]: 0.396
Signal to Background [19]: 2.8
AEB1 [20]: 0.129
AEB2 [20]: 0.134
Ave AEB [20]: 0.132
Signal to Background [20]: 0.931
AEB1 [21]: 0.151
AEB2 [21]: 0.145
Ave AEB [21]: 0.148
Signal to Background [21]: 2.77
AEB1 [22]: 0.0655
AEB2 [22]: 0.0625
Ave AEB [22]: 0.064
Signal to Background [22]: 1.19
Substance: GTX101092 (GeneTex) (antibody)
